Data: the domain aggregation screens of Martell et al. (2025)

Assay: soluble fraction after stress (log2 fold change); higher = more stays soluble; pooled small domains, quantitative proteomics
Conditions: stress: 75 degC
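Also: 20 min heating vs room temperature control held 20 min.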

Sequence | soluble fraction (log2)
HMRATLTDETARVVQEPTSESISLTSLRKGEEFEIGKVIRKKKEVWVTVTTSSGVKGYISGDTHIF | 0.00739
HMRAVFEQLRIGQTLAGVVKAQEKGFSLVEIDGQTVAMRLPHPAAVGDTLRLRFAGHMPQAVFLLES | -1.99
HMRAVPSIAFVTQKLIEQGVTMEQLVRSLLLDHEEYENDDSLERTADELFGKARMIISNYTPE | -1.08
HMRDADRYAFMQENVEDFAKDMRRKHMTYDVLYEEYIRRTDNPYGYTQFKAIVQEYEKNHDYK | -0.367
HMRDGYEKPTEVGEGGRNPAMLSYIGHLRAKGHLSEEDIRSMAHGFNATTFDPPLDRDEVDGLVSRY | 0.106
HMRDITAQSNASELYFEERDLEAFIEKLERLYPEIRYVNRLMIHSWGQQVVRFFDPDGNLIEVGTP | -0.146
HMRDKTMLGNVIRTRRKKMNLTLEELSKQVGITSGGLSQIERGLVDPSLSVLRRISRALNLPMNVMFSE | -1.32
HMRDLAEAETILDALPTRLRKIVRWRHLEGLSQTEIAARLEISQMHVSRLYRRAISMIHASLADD | -0.289
HMREEQELFRKLLEVNGIGPKVAAGMLAGGRPEDVVSAIRREDVAWLTKLPGIGRKTAQRIVLDLKDKLD | -0.331
HMREPQMVTVNGDKVTHGHAYRSNVNPEDWYFTARINGQQLKPQKMEPADVAAYDKKEIGVPELMQR | -0.275
HMRESPYRRVAKFLLLIGTAEAAKIVSRLDQDQVEKVMLELSGIRSVPRDEATVILAEFESLLQQAR | -2.03
HMRESRLFQILYQLLTKKKVTAANLAKQFEVSVRTIYRDIDALSSSGIPIYASQGKNGGIQLDEDF | -0.992
HMRETELPVTIISAGRILAENLHLAGRDGGWLEAELKRRSLTAEQVLLLTVDAAGTVYLVRKEDL | -2.1
HMREWPLWEIFIRGQHGLNHRHVGSLHAPDAAMAIGNARDVYTRRNEGVSIWAVRSADVVASVPSE | -2.08
HMRGADNAASILKEVGPHPEDGKPITVRSGRYGPYVKHGTTNATLPKDIKPEEITLDEAIALINERVAKG | 0.018
HMRGGKGTVPDVTGMDAAAAVRILEKAGMNVAYIRGAGFVAEQTPAAGTKLKKGDKAYITLSWK | -0.622
HMRGGWESLTDREREIAVLAAEGHSNRTIASTLFISDRTVQSHVSRALRALGVDSRTGIPSLVTTATR | 0.09
HMRGWGTVKRRTPKSGRYRASYIGPDGKRYAADHTYAAKVDADAWLSSERALITAGVWTPPTDRVT | -0.688
HMRHLSVPSQDTQQVLQRLKVELALPEGARVRSDPSDPGRRLIPFTESVPQEMIDQYPVVSINI | -0.147
HMRIAGIDIPDNKRGEVALTYIFGIGRSSSKKILKSAGIDSDKQIGKWTDDESNLVRKLIRDEYTIEGDL | -0.312
HMRIASANAIYDELLNKRDDAKLAELKQEDINLYALYILQNGSADERAALENTQGIDVVLKEIINLQNG | -0.305
HMRIGINDRIHEIVDVLRLKKSTPFEDLFSGLVTRFDLVITFLALLEMGKLRLLRLYQTDPLAPLHVEYTG | -0.0164
HMRILDFPALKTEFDQLTKDLMAKYPEDGADRVRAIIETVLGPGKKVGALQPHQAELLAEVNTSLKANL | -0.0738
HMRILGIDPGTRITGYGIIDIEGNRLRHVDNGIIKTRSSDALPLRLKVIYDGLTAVLKQYSPQAV | 0.23
HMRIQTVDYNTFISMVEDGKVDAAEIQQQENRILFSDQDQKVYKTAMVPDDDLTQRLLDAGVSTNG | 0.726
HMRISKRQLILESAAAIINEKGADYLTLDAVAQRAGISKGGLFYHFKSKDELIKELVNYANN | -1.56

Sequence | soluble fraction (log2)
HMRISLKAQVYEYLKQAIINGDLKVGEIYSEQYFADKLSISRTPVREAILQLQHENMVEVKANRGIIVK | -2.73
HMRITTKNYFKAISEVGFENLPEVLKKSHLVIEEKTNKGNDWGIYENDAEAKKVFDLAFDKLEEFIDRKED | 0.461
HMRIVQTDYRNFLSQVESGAVRSVQIDETQIRYTALDSGGKEIVYNTGKVDDPGLVNRLYDAGVEFSQVIP | -0.132
HMRKATEVPFTAFKDSIENSHGKLSKAGLARHLADEYGMSQRNMERRINNLIDNKTIKYGNEGGLVWIG | -0.104
HMRKDWTPGAFVEAFVNDTPATRSTILAKAVSAGLSRWAADNLLRTADNDGLMVRQGSGKRNEPFTYRRGP | -0.257
HMRKEEFIRELVLELKQNVSEQVILEQKRFYEEYILTEVRGGKTEEEVIASLSEPRLLAKSIIDAAEAGGD | -1.3
HMRKKDGEAYVLPRPLKKGDSVLIYDIDKKGTVLQPPEKGGKTALIQAGIIQTRVPVSNLRLLE | 0.537
HMRKKIIAQTLEEIRKSKGYSQKQVAAFIKVKPTTYNTYESGRTEPPAEILVRLSYLYRTPVDTLVQRDR | -2.13
HMRKMNDAVFYVEMSRPKRGYYTATYKLITRNPNSLPEHEITRRFFQMLEETIRKNPPYYLWTH | -0.527
HMRKPISQEIVDEVLKLAKNNPDWGYDRIAGVMKYLKYDVSATTVRHILDDNGIVPDPERRLR | 0.23
HMRKRLLQLVHIGKSQLGMDDETYRSLLSQQFYQNSAKNISYSELVKLVKILQQKGAKIRLPH | -2.17
HMRKVVLEEKEANYYAEPNSESELLGVLKRGIHLTVTDVKKEAGSDGWVKLVHPDGQEGWISGRARIRV | -0.212
HMRKYKIKEELPDNIYKIIQDNPGIVQKDIYDILGREYQQNISSYIYSMDKNGVIKRDKHGNSYKLYL | -0.119
HMRLATSELVYRIRALIRDQELQPGERLGSERALAQSLGISRSDLRMALAVLEASHEVIRKIGRAGGIVVS | -3.18
HMRLHSSGEDYLKAIFILEAQHSSVRSVEVAEYMNVSKASVSHAVALLKKNGFLKMNQDYDLTER | -0.163
HMRLIALPSVTDISIRQAEATLMSIGIKVSSIQYAPSEYKDLVLEVKYRGQSIIQGAKIPEGSSVVLVAGN | -3.21
HMRLPLYLALAQTLRQEIDAKQYKIGAHLPPEDQLVVKYGVSRHTVRQALQELKNEGLITSKAGIGTIVSS | -1.56
HMRLPQEVWEKIRAAYEAHGLSFSELAEMYGVNKSNISRRAKAEGWNQAETQRLITATVENE | 0.374
HMRLREETRKVDKTGLIQVDGRHYRVPDEYSQKDVQILMDDNSIMVYRKGDFVIELDKETSVYMPH | 0.347
HMRMETRILTADESGIRLDAFLASRLAVSRSLAASLIDDGNVTLNGTVPKKKTAVNVGDILEVAMP | -0.987
HMRMLTKRRQDLLLELLEERGSITVSEVKDMLDASESTIRRDITALDEEGKLVKVFGGAVAAR | -0.345
HMRMSRSARLFDLLHILRSHRRAVSGQALAQQLGISIRTLYRDIASLQAQGAKIEGEPGVGYMLKP | -1.82
HMRMTKQRQAVLDELTRVTDFRSAQQIFEDLHSQGHRVGLATIYRSLQGLAEDGSVDTLRSSDGESLY | -0.206
HMRMTRQRKVILEELGKVYTHPTADEIYTMVKEKLPNISLGTVYRNLDLLAENNQVLKLETAGNIRRYD | -0.17
HMRMYDVNEYSDEELHRILDLSSPTDSELEARILQMIQKYKYTNGGDNEKMAVFFENIYHHFFD | -1.65
HMRNAAGGIYGWMTLHQVAETVKLTEEEVIAITNLPAGIPRDVSLKNIEGVNDEELRALLEAYLEKQ | -1.34

Sequence | soluble fraction (log2)
HMRNISLSLRWHSGEWTADRLKSEVLALPGAMDMTVFEPQSQAYLRVEQGFDTKLLPAGIDVH | -1.31
HMRNNKLRRANKLKTEFENLPHIGKKRAHVLLKAFGSTENLKMTTAQALSEAAKISLKQAEEVLEAVRG | -0.466
HMRNQIRAVITPVPNQERYTVEMTIDDDAGNLLTLQMAAPDRQQAAEFAQRFQKHPEALYHAVLSVLL | -0.214
HMRNSFTVENTGERLDVFLTGQMPEFSRSHIQKLIASGQAWVNGVNRKGNFKLKPHDVVELEVPEPE | 0.381
HMRNSVQREWIYDYIQRQDAHLSADEIYEGLLKEGKNISLATVYRNLSILVDEYKIASVMTDSKKQVYDK | -2.56
HMRNTPQRRHAILALLSEQGEVSVDALAKRFSTSEVTIRKDLAAMESHGLLLRRYGGAVPMPQELI | -1.63
HMRPEVALSSRELEILEALATGKSNKELAQRLFISEATVKTHLIHIYQKLGVDTRTAAVTVARERKL | -2.3
HMRPEVTEHLKTADAILHGGDINRQSIVDELRQYAPLYIVRGNNDKDWAEAIPHDLTVTLGGVTFFMVHNR | -0.0851
HMRPFAMNLLEKHKADIEVWLKHPNMTNTQIKRLLEELGTSVSVSSIDRFISTSFPKLPKHT | -0.121
HMRPIWVQLADDFRHRIVSGQWPPGSKIPSVRELAAETGVNPNTVQRALGALDGEGLTATERTAGRFVTT | -0.266
HMRPKVADIDYFDGKTFTIEDGSKHSITTSEAKKIYFYLVKNGYVDDESHVTDAYRSAATSGTLA | 0.0416
HMRPQELSSLNTNQMRLYNSLPEAFITAEAKDIADKLRYSERSLFRFLNESNLFTKTEHGSYAKKA | 0.0879
HMRPQYVDLFTKLSAEEAGAITSKLKELKVEYQLADNGSTIKVPQKDAAEIRLELANEGLPA | 0.138
HMRPRQDRSEETRDRILDAVVELIAERGLAGVSHRAVADRAGVSLSATSYYFGSKAELERAALEEHYRR | -0.881
HMRPSGEAVNAAYRLLKGANPSGNEGDLIQRAQEVAAILPKLNRSSAAAFAKDAKANGLTQAETIALWKGS | 0.135
HMRPTYRTRLEVLINNPAISGRDLDFAQSLLSYYERKGRLSAGRVKWVTTLEERYSPENLAASAAK | -0.856
HMRQFEPVEGYNPYADKNELHGYEYWGAKFADSRSPEETAWIKQQIDDENEDRRFISEAGLA | 0.0889
HMRQQQISAAIKTSVNGTVDYYVRRLPERDPRGDFLEVWDDLQKVIQAAHGIQVSHDELYEYFRRLK | -0.833
HMRQQSLHSLYRDHHSWLQNWLRRQLGNTWDAADLSQDTFIKVLASSQSVAEIREPRAYLLTVGKRL | -0.294
HMRQSDIAAAFRESILRSSKGFQYLHTRDFVTALRRRGIHLSEVEANSWIAREKTYFVDSALDHSENRLWI | -1.65
HMRQSIHTALQLLTPREEEVLNLLVSGKSNKQVAEHFSLSSKTIERHRSSVMRKLDASSFAQLVRIAALR | -3.27
HMRQYPSGVFKEEGVKAVYIHAGTPFLVIAAQYKIPLARLFEWNNLLPSTEARISQVIYLERPG | -3.92
HMRRARVAGKGHFTGEDAMAVYRELEALFGETETLYLPGHRPFEAVLSKLALIGVPEKNTVPYTFAFVET | -0.392
HMRREIRLTVTEEIVLMKFLLTQIPYKNRDNFKTLLNDRQIRVNGSVVTWYNHPLKPGQEVTIGWFKM | -0.264
HMRRPRGVFNLVPGKRFGFITPDGGGEDVFAHLANVRAGHVAEDRNAVEYGIGRGPDGRDQAVDIVPMP | -0.329
